Biological target: human uPAR on 293/uPAR cells (human) (UniProt Q03405)
Assay: cell-based or functional assay

Chain of human uPAR on 293/uPAR cells (human) (Q03405 23-305): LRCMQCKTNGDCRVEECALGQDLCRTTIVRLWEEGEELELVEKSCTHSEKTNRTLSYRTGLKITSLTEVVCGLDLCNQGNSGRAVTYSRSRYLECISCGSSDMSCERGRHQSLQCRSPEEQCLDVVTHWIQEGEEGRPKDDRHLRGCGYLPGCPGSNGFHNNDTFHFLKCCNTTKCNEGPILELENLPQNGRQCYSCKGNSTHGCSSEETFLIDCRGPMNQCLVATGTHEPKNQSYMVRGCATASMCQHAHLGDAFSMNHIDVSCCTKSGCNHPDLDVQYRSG

IC50, inhibition of 293/uPAR cell adhesion to VN (RTCA impedance, 1 h after addition) [nM] | maximal inhibition of 293/uPAR cell adhesion to VN [%] | Binder
6.3 | 60 | SMB-GFD/mFc (disulphide-linked homodimer) (Fc fusion) DQESCKGRCTEGFNVDKKCQCDELCSYYQSCCTDYTAECKPGGGGSGGGGSGGGGPSNCDCLNGGTCVSNKYFSNIHWCNCPKKFGGQHCEIDKSKGSGLEAGAGPRDCGCKPCICTVPEVSSVFIFPPKPKDVLTITLTPKVTCVVVDISKDDPEVQFSWFVDDVEVHTAQTKPREEQFNSTFRSVSELPIMHQDWLNGKEFKCRVNSAAFPAPIEKTISKTKGRPKAPQVYTIPPPKEQMAKDKVSLTCMITDFFPEDITVEWQWNGQPAENYKNTQPIMDTDGSYFVYSKLNVQKSNWEAGNTFTCSVLHEGLHNHHTEKSLSHSPGK
20 | 60 | GFD-SMB/mFc (disulphide-linked homodimer) (Fc fusion) SNELHQVPSNCDCLNGGTCVSNKYFSNIHWCNCPKKFGGQHCEIDKSKTGGGGSGGGGSGGGGQESCKGRCTEGFNVDKKCQCDELCSYYQSCCTDYTAECKPGSGLEAGAGPRDCGCKPCICTVPEVSSVFIFPPKPKDVLTITLTPKVTCVVVDISKDDPEVQFSWFVDDVEVHTAQTKPREEQFNSTFRSVSELPIMHQDWLNGKEFKCRVNSAAFPAPIEKTISKTKGRPKAPQVYTIPPPKEQMAKDKVSLTCMITDFFPEDITVEWQWNGQPAENYKNTQPIMDTDGSYFVYSKLNVQKSNWEAGNTFTCSVLHEGLHNHHTEKSLSHSPGK

From patent publication US20130280162A1
